US20120122239A1

Legend:
[1] = biological target: human NT-pro B-type natriuretic peptide (HyTest, Turku, Finland; Catalog No. 8NT1) (human); experiment: sandwich CMIA, capture 15C4, analyte 43.3 pM
[2] = biological target: human pro B-type natriuretic peptide (HyTest, Turku, Finland; Catalog No. 8PRO8) (human); experiment: sandwich CMIA, capture 15C4, analyte 43.3 pM
[3] = biological target: glycosylated human proBNP (HyTest, Turku, Finland; Catalog No. 8GOB2) (human); experiment: sandwich CMIA, capture 15C4, analyte 43.3 pM
Sequence of glycosylated human proBNP (HyTest, Turku, Finland; Catalog No. 8GOB2) (human) (chain, as listed by the source): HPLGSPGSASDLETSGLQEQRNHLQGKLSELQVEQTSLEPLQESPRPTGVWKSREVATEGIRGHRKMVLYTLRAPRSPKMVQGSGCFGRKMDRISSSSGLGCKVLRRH

[4] = biological target: human NT-pro B-type natriuretic peptide (HyTest, Turku, Finland; Catalog No. 8NT1) (human); experiment: sandwich CMIA, capture 15F11, analyte 288.7 pM
[5] = biological target: human pro B-type natriuretic peptide (HyTest, Turku, Finland; Catalog No. 8PRO8) (human); experiment: sandwich CMIA, capture 15F11, analyte 288.7 pM
[6] = biological target: glycosylated human proBNP (HyTest, Turku, Finland; Catalog No. 8GOB2) (human); experiment: sandwich CMIA, capture 15F11, analyte 288.7 pM
[7] = biological target: human NT-pro B-type natriuretic peptide (HyTest, Turku, Finland; Catalog No. 8NT1) (human); experiment: sandwich CMIA, capture 15C4, analyte 288.7 pM
[8] = biological target: human pro B-type natriuretic peptide (HyTest, Turku, Finland; Catalog No. 8PRO8) (human); experiment: sandwich CMIA, capture 15C4, analyte 288.7 pM
[9] = biological target: glycosylated human proBNP (HyTest, Turku, Finland; Catalog No. 8GOB2) (human); experiment: sandwich CMIA, capture 15C4, analyte 288.7 pM
[10] = biological target: human NT-pro B-type natriuretic peptide (HyTest, Turku, Finland; Catalog No. 8NT1) (human); experiment: sandwich CMIA, capture 15C4, analyte 86.6 pM
[11] = biological target: human pro B-type natriuretic peptide (HyTest, Turku, Finland; Catalog No. 8PRO8) (human); experiment: sandwich CMIA, capture 15C4, analyte 86.6 pM
[12] = biological target: glycosylated human proBNP (HyTest, Turku, Finland; Catalog No. 8GOB2) (human); experiment: sandwich CMIA, capture 15C4, analyte 86.6 pM
[13] = biological target: human NT-pro B-type natriuretic peptide (HyTest, Turku, Finland; Catalog No. 8NT1) (human); experiment: sandwich CMIA, capture 15F11, analyte 577.4 pM
[14] = biological target: human pro B-type natriuretic peptide (HyTest, Turku, Finland; Catalog No. 8PRO8) (human); experiment: sandwich CMIA, capture 15F11, analyte 577.4 pM
[15] = biological target: glycosylated human proBNP (HyTest, Turku, Finland; Catalog No. 8GOB2) (human); experiment: sandwich CMIA, capture 15F11, analyte 577.4 pM
[16] = biological target: human NT-pro B-type natriuretic peptide (HyTest, Turku, Finland; Catalog No. 8NT1) (human); experiment: sandwich CMIA, capture 15C4, analyte 577.4 pM
[17] = biological target: human pro B-type natriuretic peptide (HyTest, Turku, Finland; Catalog No. 8PRO8) (human); experiment: sandwich CMIA, capture 15C4, analyte 577.4 pM
[18] = biological target: glycosylated human proBNP (HyTest, Turku, Finland; Catalog No. 8GOB2) (human); experiment: sandwich CMIA, capture 15C4, analyte 577.4 pM
[19] = biological target: human NT-pro B-type natriuretic peptide (HyTest, Turku, Finland; Catalog No. 8NT1) (human); experiment: sandwich CMIA, capture 15C4, analyte 0.0 pM (blank)
[20] = biological target: human pro B-type natriuretic peptide (HyTest, Turku, Finland; Catalog No. 8PRO8) (human); experiment: as above
[21] = biological target: glycosylated human proBNP (HyTest, Turku, Finland; Catalog No. 8GOB2) (human); experiment: as above
[22] = biological target: human NT-pro B-type natriuretic peptide (HyTest, Turku, Finland; Catalog No. 8NT1) (human); experiment: sandwich CMIA, capture 15F11, analyte 86.6 pM
[23] = biological target: human pro B-type natriuretic peptide (HyTest, Turku, Finland; Catalog No. 8PRO8) (human); experiment: sandwich CMIA, capture 15F11, analyte 86.6 pM
[24] = biological target: glycosylated human proBNP (HyTest, Turku, Finland; Catalog No. 8GOB2) (human); experiment: sandwich CMIA, capture 15F11, analyte 86.6 pM
[25] = biological target: human NT-pro B-type natriuretic peptide (HyTest, Turku, Finland; Catalog No. 8NT1) (human); experiment: sandwich CMIA, capture 15F11, analyte 0.0 pM (blank)
[26] = biological target: human pro B-type natriuretic peptide (HyTest, Turku, Finland; Catalog No. 8PRO8) (human); experiment: as above
[27] = biological target: glycosylated human proBNP (HyTest, Turku, Finland; Catalog No. 8GOB2) (human); experiment: as above
[28] = biological target: human NT-pro B-type natriuretic peptide (HyTest, Turku, Finland; Catalog No. 8NT1) (human); experiment: sandwich CMIA, capture 15F11, analyte 43.3 pM
[29] = biological target: human pro B-type natriuretic peptide (HyTest, Turku, Finland; Catalog No. 8PRO8) (human); experiment: sandwich CMIA, capture 15F11, analyte 43.3 pM
[30] = biological target: glycosylated human proBNP (HyTest, Turku, Finland; Catalog No. 8GOB2) (human); experiment: sandwich CMIA, capture 15F11, analyte 43.3 pM

Sequence of human NT-pro B-type natriuretic peptide (HyTest, Turku, Finland; Catalog No. 8NT1) (human) (chain, as listed by the source): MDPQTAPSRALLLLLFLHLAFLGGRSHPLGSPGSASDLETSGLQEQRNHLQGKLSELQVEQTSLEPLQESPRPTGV

Row | Analyte rlus [1] | Analyte rlus [2] | Analyte rlus [3] | Analyte rlus [4] | Analyte rlus [5] | Analyte rlus [6] | Analyte rlus [7] | Analyte rlus [8] | Analyte rlus [9] | Analyte rlus [10] | Analyte rlus [11] | Analyte rlus [12] | Analyte rlus [13] | Analyte rlus [14] | Analyte rlus [15] | Analyte rlus [16] | Analyte rlus [17] | Analyte rlus [18] | Analyte rlus [19] | Analyte rlus [20] | Substance | also measured
1 | 883 rlus | 851 rlus | 1010 rlus | 977 rlus | 949 rlus | 925 rlus | 1140 rlus | 945 rlus | 930 rlus | 998 rlus | 1040 rlus | 835 rlus | 1010 rlus | 897 rlus | 953 rlus | 1370 rlus | 917 rlus | 859 rlus | 847 rlus | 847 rlus | anti-human NT proBNP/anti-human proBNP monoclonal antibody 15F11 (HyTest, Turku, Finland) | Analyte rlus [21]: 847 rlus; Analyte rlus [22]: 929 rlus; Analyte rlus [23]: 963 rlus; Analyte rlus [24]: 886 rlus; Analyte rlus [25]: 912 rlus; Analyte rlus [26]: 912 rlus; Analyte rlus [27]: 912 rlus; Analyte rlus [28]: 904 rlus; Analyte rlus [29]: 857 rlus; Analyte rlus [30]: 899 rlus
2 | 750 rlus | 686 rlus | 606 rlus | 593 rlus | 556 rlus | 525 rlus | 1180 rlus | 607 rlus | 672 rlus | 719 rlus | 641 rlus | 581 rlus | 534 rlus | 612 rlus | 600 rlus | 2180 rlus | 726 rlus | 800 rlus | 590 rlus | 590 rlus | anti-human NT-proBNP/anti-human proBNP labeled monoclonal antibody 7B5 (HyTest, Turku, Finland) | Analyte rlus [21]: 590 rlus; Analyte rlus [22]: 549 rlus; Analyte rlus [23]: 529 rlus; Analyte rlus [24]: 505 rlus; Analyte rlus [25]: 615 rlus; Analyte rlus [26]: 615 rlus; Analyte rlus [27]: 615 rlus; Analyte rlus [28]: 615 rlus; Analyte rlus [29]: 589 rlus; Analyte rlus [30]: 528 rlus
